B1: Steroid hormone receptor ERR1 (Homo sapiens), P11474 (parent)
chain: MSSQVVGIEPLYIKAEPASPDSPKGSSETETEPPVALAPGPAPTRCLPGHKEEEDGEGAGPGEQGGGKLVLSSLPKRLCLVCGDVASGYHYGVASCEACKAFFKRTIQGSIEYSCPASNECEITKRRRKACQACRFTKCLRVGMLKEGVRLDRVRGGRQKYKRRPEVDPLPFPGPFPAGPLAVAGGPRKTAAPVNALVSHLLVVEPEKLYAMPDPAGPDGHLPAVATLCDLFDREIVVTISWAKSIPGFSSLSLSDQMSVLQSVWMEVLVLGVAQRSLPLQDELAFAEDLVLDEEGARAAGLGELGAALLQLVRRLQALRLEREEYVLLKALALANSDSVHIEDAEAVEQLREALHEALLEYEAGRAGPGGGAERRRAGRLLLTLPLLRQTAGKVLAHFYGVKLEGKVPMHKLFLEMLEAMMD
partner: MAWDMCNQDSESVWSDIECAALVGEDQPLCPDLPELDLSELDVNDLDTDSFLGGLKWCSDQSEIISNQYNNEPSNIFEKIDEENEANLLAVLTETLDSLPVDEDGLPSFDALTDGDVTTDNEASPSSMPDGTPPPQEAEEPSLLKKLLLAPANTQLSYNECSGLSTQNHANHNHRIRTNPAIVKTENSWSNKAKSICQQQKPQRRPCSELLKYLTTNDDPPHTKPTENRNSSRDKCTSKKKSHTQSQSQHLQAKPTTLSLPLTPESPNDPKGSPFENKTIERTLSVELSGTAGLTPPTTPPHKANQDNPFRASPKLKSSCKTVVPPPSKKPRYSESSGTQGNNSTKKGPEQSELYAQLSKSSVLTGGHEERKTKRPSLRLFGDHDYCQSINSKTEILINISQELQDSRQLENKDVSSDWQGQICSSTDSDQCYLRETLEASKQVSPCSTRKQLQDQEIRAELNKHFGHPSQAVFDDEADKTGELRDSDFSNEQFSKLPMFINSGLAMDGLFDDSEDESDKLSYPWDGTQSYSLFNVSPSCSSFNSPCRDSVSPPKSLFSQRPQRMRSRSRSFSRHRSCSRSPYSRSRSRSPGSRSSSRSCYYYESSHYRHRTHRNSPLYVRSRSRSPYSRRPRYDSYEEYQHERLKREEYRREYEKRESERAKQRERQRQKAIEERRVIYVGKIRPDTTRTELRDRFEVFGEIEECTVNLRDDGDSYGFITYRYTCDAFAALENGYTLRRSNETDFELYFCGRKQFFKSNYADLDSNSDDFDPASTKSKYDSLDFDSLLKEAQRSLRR
B2: Peroxisome proliferator-activated receptor gamma coactivator 1-alpha (Homo sapiens), Q9UBK2 (parent)
chain: B1 partner
partner: B1 chain
B3: Estrogen receptor (Homo sapiens), P03372 (parent)
chain: MTMTLHTKASGMALLHQIQGNELEPLNRPQLKIPLERPLGEVYLDSSKPAVYNYPEGAAYEFNAAAAANAQVYGQTGLPYGPGSEAAAFGSNGLGGFPPLNSVSPSPLMLLHPPPQLSPFLQPHGQQVPYYLENEPSGYTVREAGPPAFYRPNSDNRRQGGRERLASTNDKGSMAMESAKETRYCAVCNDYASGYHYGVWSCEGCKAFFKRSIQGHNDYMCPATNQCTIDKNRRKSCQACRLRKCYEVGMMKGGIRKDRRGGRMLKHKRQRDDGEGRGEVGSAGDMRAANLWPSPLMIKRSKKNSLALSLTADQMVSALLDAEPPILYSEYDPTRPFSEASMMGLLTNLADRELVHMINWAKRVPGFVDLTLHDQVHLLECAWLEILMIGLVWRSMEHPGKLLFAPNLLLDRNQGKCVEGMVEIFDMLLATSSRFRMMNLQGEEFVCLKSIILLNSGVYTFLSSTLKSLEEKDHIHRVLDKITDTLIHLMAKAGLTLQQQHQRLAQLLLILSHIRHMSNKGMEHLYSMKCKNVVPLYDLLLEMLDAHRLHAPTSRGGASVEETDQSHLATAGSTSSHSLQKYYITGEAEGFPATV
partner: B1 partner

Variants of: B1
Conditions: with prgc1_human PPARGC1A

effect of a mutation on the interaction | Variant
disrupting interaction strength | MSSQVVGIEPLYIKAEPASPDSPKGSSETETEPPVALAPGPAPTRCLPGHKEEEDGEGAGPGEQGGGKLVLSSLPKRLCLVCGDVASGYHYGVASCEACKAFFKRTIQGSIEYSCPASNECEITKRRRKACQACRFTKCLRVGMLKEGVRLDRVRGGRQKYKRRPEVDPLPFPGPFPAGPLAVAGGPRKTAAPVNALVSHLLVVEPEKLYAMPDPAGPDGHLPAVATLCDLFDREIVVTISWAKSIPGFSSLSLSDQMSVLQSVWMEVLVLGVAQRSLPLQDELAFAEDLVLDEEGARAAGLGELGAALLQLVRALQALRLEREEYVLLKALALANSDSVHIEDAEAVEQLREALHEALLEYEAGRAGPGGGAERRRAGRLLLTLPLLRQTAGKVLAHFYGVKLEGKVPMHKLFLEMLEAMMD [R315A]
disrupting interaction strength | MSSQVVGIEPLYIKAEPASPDSPKGSSETETEPPVALAPGPAPTRCLPGHKEEEDGEGAGPGEQGGGKLVLSSLPKRLCLVCGDVASGYHYGVASCEACKAFFKRTIQGSIEYSCPASNECEITKRRRKACQACRFTKCLRVGMLKEGVRLDRVRGGRQKYKRRPEVDPLPFPGPFPAGPLAVAGGPRKTAAPVNALVSHLLVVEPEKLYAMPDPAGPDGHLPAVATLCDLFDREIVVTISWAKSIPGFSSLSLSDQMSVLQSVWMEVLVLGVAQRSLPLQDELAFAEDLVLDEEGARAAGLGELGAALLQLVRRLQALRLEREEYVLLKALALANSASVHIEDAEAVEQLREALHEALLEYEAGRAGPGGGAERRRAGRLLLTLPLLRQTAGKVLAHFYGVKLEGKVPMHKLFLEMLEAMMD [D338A]
decreasing interaction strength | MSSQVVGIEPLYIKAEPASPDSPKGSSETETEPPVALAPGPAPTRCLPGHKEEEDGEGAGPGEQGGGKLVLSSLPKRLCLVCGDVASGYHYGVASCEACKAFFKRTIQGSIEYSCPASNECEITKRRRKACQACRFTKCLRVGMLKEGVRLDRVRGGRQKYKRRPEVDPLPFPGPFPAGPLAVAGGPRKTAAPVNALVSHLLVVEPEKLYAMPDPAGPDGHLPAVATLCDLFDREIVVTISWAKSIPGFSSLSLSDQMHVLQSVWMEVLVLGVAQRSLPLQDELAFAEDLVLDEEGARAAGLGELGAALLQLVRRLQALRLEREEYVLLKALALANSDSVHIEDAEAVEQLREALHEALLEYEAGRAGPGGGAERRRAGRLLLTLPLLRQTAGKVLAHFYGVKLEGKVPMHKLFLEMLEAMMD [S259H]

Variants of: B1
Conditions: with prgc1_human PPARGC1A
Remark: another data set of the same source

effect of a mutation on the interaction | Variant
decreasing interaction strength | MSSQVVGIEPLYIKAEPASPDSPKGSSETETEPPVALAPGPAPTRCLPGHKEEEDGEGAGPGEQGGGKLVLSSLPKRLCLVCGDVASGYHYGVASCEACKAFFKRTIQGSIEYSCPASNECEITKRRRKACQACRFTKCLRVGMLKEGVRLDRVRGGRQKYKRRPEVDPLPFPGPFPAGPLAVAGGPRKTAAPVNALVSHLLVVEPEKLYAMPDPAGPDGHLPAVATLCDLFDREIVVTISWAKSIPGFSSLSLSDQMSVLQSVWMEVLVLGVAQRSLPLQDELAFAEDLVLDEEGARAAGLGELGAALLQLVRRLQALRLEREEYVLLKALALANSDSVHIEDAEAVEQLREALHEALLEYEAGRAGPGGGAERRRAGRLLLTLPLLRQTAGKVLAHFYGVKLEGKVPMHKLFLEMLEAMMA [D423A]
disrupting interaction strength | MSSQVVGIEPLYIKAEPASPDSPKGSSETETEPPVALAPGPAPTRCLPGHKEEEDGEGAGPGEQGGGKLVLSSLPKRLCLVCGDVASGYHYGVASCEACKAFFKRTIQGSIEYSCPASNECEITKRRRKACQACRFTKCLRVGMLKEGVRLDRVRGGRQKYKRRPEVDPLPFPGPFPAGPLAVAGGPRKTAAPVNALVSHLLVVEPEKLYAMPDPAGPDGHLPAVATLCDLFDREIVVTISWAKSIPGFSSLSLSDQVSVLESVWMEVLVLGVAQRSLPLQDELAFAEDLVLDEEGARAAGLGELGAALLQLVRRLQALRLEREEYVLLKALALANSDSVHIEDAEAVEQLREALHEALLEYEAGRAGPGGGAERRRAGRLLLTLPLLRQTAGKVLAHFYGVKLEGKVPMHKLFLEMLEAMMD [M258V;Q262E]
decreasing interaction strength | MSSQVVGIEPLYIKAEPASPDSPKGSSETETEPPVALAPGPAPTRCLPGHKEEEDGEGAGPGEQGGGKLVLSSLPKRLCLVCGDVASGYHYGVASCEACKAFFKRTIQGSIEYSCPASNECEITKRRRKACQACRFTKCLRVGMLKEGVRLDRVRGGRQKYKRRPEVDPLPFPGPFPAGPLAVAGGPRKTAAPVNALVSHLLVVEPEKLYAMPDPAGPDGHLPAVATLCDLFDREIVVTISWAKSIPGFSSLSLSDQMSVLQSVWMEVLVLGVAQRSLPLQDELAFAEDLVLDEEGARAAGLGELGAALLQLVRRLQALRLEREEYVLLKALALANSDSVAIEDAEAVEQLREALHEALLEYEAGRAGPGGGAERRRAGRLLLTLPLLRQTAGKVLAHFYGVKLEGKVPMHKLFLEMLEAMMD [H341A]

Variants of: B1
Conditions: with prgc1_human PPARGC1A
Remark: another data set of the same source

effect of a mutation on the interaction | Variant
with no effect | MSSQVVGIEPLYIKAEPASPDSPKGSSETETEPPVALAPGPAPTRCLPGHKEEEDGEGAGPGEQGGGKLVLSSLPKRLCLVCGDVASGYHYGVASCEACKAFFKRTIQGSIEYSCPASNECEITKRRRKACQACRFTKCLRVGMLKEGVRLDRVRGGRQKYKRRPEVDPLPFPGPFPAGPLAVAGGPRKTAAPVNALVSHLLVVEPEKLYAMPDPAGPDGHLPAVATLCDLFDREIVVTISWAKSIPGFSSLSLSDQMSVLQSVWMEVLVLGVAQRSLPLQDELAFAEDLVLDEEGARAAGLGELGAALLQLVRRLQALRLEREEYVLLKALALANSDSVHIEDAEAVEQLREALHEALLEYEAGRAGPGGGAERRRAGRLLLTLPLLRQTAGKVLAHFYGVKLEGKVPMHKLFLEMLEAMMA [D423A]

Variants of: B1
Conditions: with prgc1_human PPARGC1A
Remark: another data set of the same source

effect of a mutation on the interaction | Variant
decreasing interaction strength | MSSQVVGIEPLYIKAEPASPDSPKGSSETETEPPVALAPGPAPTRCLPGHKEEEDGEGAGPGEQGGGKLVLSSLPKRLCLVCGDVASGYHYGVASCEACKAFFKRTIQGSIEYSCPASNECEITKRRRKACQACRFTKCLRVGMLKEGVRLDRVRGGRQKYKRRPEVDPLPFPGPFPAGPLAVAGGPRKTAAPVNALVSHLLVVEPEKLYAMPDPAGPDGHLPAVATLCDLFDREIVVTISWAKSIPGFSSLSLSDQMSVLQSVWMEVLVLGVAQRSLPLQDELAFAEDLVLDEEGARAAGLGELGAALLQLVRRLQALRLEREEYVLLKALALANSDSVHIADAEAVEQLREALHEALLEYEAGRAGPGGGAERRRAGRLLLTLPLLRQTAGKVLAHFYGVKLEGKVPMHKLFLEMLEAMMD [E343A]

Variants of: B1
Conditions: with prgc1_human PPARGC1A
Remark: another data set of the same source

effect of a mutation on the interaction | Variant
with no effect | MSSQVVGIEPLYIKAEPASPDSPKGSSETETEPPVALAPGPAPTRCLPGHKEEEDGEGAGPGEQGGGKLVLSSLPKRLCLVCGDVASGYHYGVASCEACKAFFKRTIQGSIEYSCPASNECEITKRRRKACQACRFTKCLRVGMLKEGVRLDRVRGGRQKYKRRPEVDPLPFPGPFPAGPLAVAGGPRKTAAPVNALVSHLLVVEPEKLYAMPDPAGPDGHLPAVATLCDLFDREIVVTISWAKSIPGFSSLSLSDQMSVLQSVWMEVLVLGVAQRSLPLQDELAFAEDLVLDEEGARAAGLGELGAALLQLVRRLQALRLEREEYVLLKALALANSDSVHIADAEAVEQLREALHEALLEYEAGRAGPGGGAERRRAGRLLLTLPLLRQTAGKVLAHFYGVKLEGKVPMHKLFLEMLEAMMD [E343A]

Variants of: B2
Conditions: with err1_human ESRRA

effect of a mutation on the interaction | Variant
decreasing interaction strength | L144A
decreasing interaction strength | L210A
disrupting interaction strength | L144A;L210A

Variants of: B2
Conditions: with err1_human ESRRA
Remark: another data set of the same source

effect of a mutation on the interaction | Variant
disrupting interaction strength | L144A

Variants of: B2
Conditions: with err1_human ESRRA
Remark: another data set of the same source

effect of a mutation on the interaction | Variant
disrupting interaction strength | C207E
disrupting interaction strength | C207S
disrupting interaction strength | Y213A
disrupting interaction strength | L210A
decreasing interaction strength | L211A

Variants of: B2
Conditions: with err1_human ESRRA
Remark: another data set of the same source

effect of a mutation on the interaction | Variant
disrupting interaction strength | R204A;R205A
with no effect | P202A;Q203A

Variants of: B2
Conditions: with err1_human ESRRA
Remark: another data set of the same source

effect of a mutation on the interaction | Variant
decreasing interaction strength | K212R

Variants of: B3
Conditions: with prgc1_human PPARGC1A

effect of a mutation on the interaction | Variant
increasing interaction strength | MTMTLHTKASGMALLHQIQGNELEPLNRPQLKIPLERPLGEVYLDSSKPAVYNYPEGAAYEFNAAAAANAQVYGQTGLPYGPGSEAAAFGSNGLGGFPPLNSVSPSPLMLLHPPPQLSPFLQPHGQQVPYYLENEPSGYTVREAGPPAFYRPNSDNRRQGGRERLASTNDKGSMAMESAKETRYCAVCNDYASGYHYGVWSCEGCKAFFKRSIQGHNDYMCPATNQCTIDKNRRKSCQACRLRKCYEVGMMKGGIRKDRRGGRMLKHKRQRDDGEGRGEVGSAGDMRAANLWPSPLMIKRSKKNSLALSLTADQMVSALLDAEPPILYSEYDPTRPFSEASMMGLLTNLADRELVHMINWAKRVPGFVDLTLHDQMHLLQCAWLEILMIGLVWRSMEHPGKLLFAPNLLLDRNQGKCVEGMVEIFDMLLATSSRFRMMNLQGEEFVCLKSIILLNSGVYTFLSSTLKSLEEKDHIHRVLDKITDTLIHLMAKAGLTLQQQHQRLAQLLLILSHIRHMSNKGMEHLYSMKCKNVVPLYDLLLEMLDAHRLHAPTSRGGASVEETDQSHLATAGSTSSHSLQKYYITGEAEGFPATV [V376M;E380Q]

Reference: IntAct's records for PubMed 18441008
